Data as given in article PMC6143588, “A variant NuRD complex containing PWWP2A/B excludes MBD2/3 to regulate transcription at active genes” (Nature Communications, 2018).
One block for each binder: values may come before it. Where no end group is shown, it is not given here. The star is where a group is joined. 5FAM = O=C1OC2(c3ccc(O)cc3Oc3cc(O)ccc32)c2ccc(C(=O)*)cc21

Legend:
[1] = target: T1, His10-Flag3-TEV-MTA1 162-546 (UniProt Q13330 162-546); test: co-IP + SEC; co-expression in HEK293F of His10-Flag3-TEV-MTA1 162-546 with untagged HDAC1, RBBP4 and PWWP2A 1-373; FLAG resin, TEV cleavage, Superdex S200 in 25 mM Tris-Cl pH 7.5, 50 mM potassium acetate, 0.5 mM TCEP; SDS-PAGE; conditions: partners not purified
T1 construct: MTA1 residues 162-546 (ELM2 and SANT domains and an additional domain that recruits RBBP4); The complex was captured by the Flag tag and then cut from the resin with TEV before gel filtration; also called FLAG-MTA1 162-546; MTA1-long; source: HEK293F, co-transfected, purified on FLAG resin, TEV cleavage, gel filtration; not shown: His10, N-terminal, kept; Flag3, N-terminal, kept
T1 sequence (looked up): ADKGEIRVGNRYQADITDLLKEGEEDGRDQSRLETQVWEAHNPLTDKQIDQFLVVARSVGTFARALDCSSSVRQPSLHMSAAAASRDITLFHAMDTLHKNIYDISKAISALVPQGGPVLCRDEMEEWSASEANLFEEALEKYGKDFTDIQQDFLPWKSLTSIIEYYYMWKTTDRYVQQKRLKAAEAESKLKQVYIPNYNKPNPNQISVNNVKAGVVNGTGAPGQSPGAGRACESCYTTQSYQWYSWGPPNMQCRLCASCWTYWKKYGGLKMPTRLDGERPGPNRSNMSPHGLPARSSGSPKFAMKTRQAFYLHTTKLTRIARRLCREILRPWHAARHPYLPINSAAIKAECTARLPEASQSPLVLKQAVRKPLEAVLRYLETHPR

[2] = target: T2, HDAC1:MTA1 162–354 complex (UniProt Q13547 1-482; Q13330 162-354); test: fluorescence polarisation; fluorescence anisotropy of 5-FAM PWWP2A peptide with unlabelled HDAC1:MTA1 162-354 complex; room temperature; 50 mM Tris pH 7.5, 150 mM KAc, 0.15 mg/mL BSA, 0.03% Tween-20; excitation 480 nm, emission 535 nm; conditions: both partners purified
T2 construct: HDAC1, untagged; MTA1 residues 162-354; Unlabelled complex formed beforehand, used in the anisotropy titration; also called MTA1:HDAC1 complex; HM; source: HEK293F, co-transfected, purified (FLAG resin, TEV cleavage, gel filtration); not shown: His10, N-terminal, cleaved; Flag3, N-terminal, cleaved
T2 sequence (Q13547 whole entry, chain 1 of 2, one chain of several, the tested form may be a part): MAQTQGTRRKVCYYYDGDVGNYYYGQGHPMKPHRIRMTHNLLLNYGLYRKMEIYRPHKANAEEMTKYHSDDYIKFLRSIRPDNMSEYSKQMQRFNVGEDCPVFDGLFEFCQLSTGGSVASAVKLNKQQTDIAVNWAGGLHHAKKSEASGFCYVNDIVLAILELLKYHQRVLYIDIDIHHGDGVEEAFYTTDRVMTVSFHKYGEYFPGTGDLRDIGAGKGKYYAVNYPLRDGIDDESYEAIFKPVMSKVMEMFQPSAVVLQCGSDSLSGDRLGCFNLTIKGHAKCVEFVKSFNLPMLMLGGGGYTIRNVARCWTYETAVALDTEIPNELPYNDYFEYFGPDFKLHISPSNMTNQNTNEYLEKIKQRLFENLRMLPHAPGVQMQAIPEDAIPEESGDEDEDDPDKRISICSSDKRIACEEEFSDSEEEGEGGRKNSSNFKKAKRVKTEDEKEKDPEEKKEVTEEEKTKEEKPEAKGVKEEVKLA

stoichiometry N [1]: ~1
B1: PWWP2A1–373, untagged, co-expressed in HEK293F cells (domain or fragment, UniProt Q96N64 1-373, looked up)
chain: MAAVAAEAAATAASPGEGGAGEAEPEMEPIPGSEAGTDPLPVTATEASVPDGETDGQQSAPQADEPPLPPPPPPPGELARSPEAVGPELEAEEKLSVRVAESAAAAPQGGPELPPSPASPPEQPPAPEEREEPPLPQPVAPALVPPAGGDSTVSQLIPGSEVRVTLDHIIEDALVVSFRFGEKLFSGVLMDLSKRFGPHGIPVTVFPKREYKDKPEAMPLQSNTFQEGTEVKCEANGAVPDDPSPVPHPELSLAESLWTSKPPPLFHEGAPYPPPLFIRDTYNQSIPQPPPRKIKRPKRKMYREEPTSIMNAIKLRPRQVLCDKCKNSVVAEKKEIRKGSSATDSSKYEDKKRRNESVTTVNKKLKTDHKVDG
notes: source: HEK293F, co-transfected, co-purified with FLAG-MTA1 (FLAG resin, gel filtration)

Kd [2]: 20 to 100 µM
B2: fluorescein-labelled PWWP2A peptide (residues 311–325) (peptide, UniProt Q96N64 311-325, looked up)
peptide: 5FAM-NAIKLRPRQVLCDKC
modifications: cysteine pairing not given here
notes: PWWP2A residues 311-325, contains the motif R/QPRQV/L; source: synthetic peptide (Cambridge Research Biochemicals)
